In US12514920B1, “Respiratory syncytial virus mRNA vaccine, and preparation method therefor and use thereof” (Hangzhou Tianlong Pharmaceutical Co., Ltd., priority 2024, dated 2026):
Where a chain is given by its changes, count along the chain named.

B1: YK-RSV-048 (protein)
chain: QNITEEFYQSTCSAVSKGYLGALRTGWYTSVITIELSNIKENKCNGTDAKVKLIKQELDKYKNAVTDLQLLMQSTPATGSGSFLGFLCGVGSAIASGVAVSKVLHLEGEVNKIKSALLSTNKAVVSLSNGVSVLTFKVLDLKNYIDKQLLPILNKQSCSIPNIETVIEFQQKNNRLLEITREFSVNAGVTTPVSTYMLTNSELLSLINDMPITNDQKKLMSNNVQIVRQQSYSIMSIIKEEVLAYVVQLPLYGVIDTPCWKLHTSPLCTTNTKEGSNICLTRTDRGWYCDNAGSVSFFPQAETCKVQSNRVFCDTMCSRTLPSEVNLCNVDIFNPKYDCKIMTSKTDVSSSVITSLGAIVSCYGKTKCTASNKNRGIIKTFSNGCDYVSNKGVDTVSVGNTLYYVNKQEGQSLYVKGEPIINFYDPLVFPSDEFDASISQVNEKINQSLAFIRKSDELLHNVNAGKSTTNIMITTIIIVIIVILLSLIAVGLLLY
B2: YK-RSV-050 (protein)
chain: B1 chain with L87C, C88L
B3: YK-RSV-009 (protein)
chain: QNITEEFYCSTCSAVSKGYLGALRTGWYTSVILIELSNIKENKCNGTDAKVKLIKQELDKYKNAVTDLQLLMQSTPATGSGSAIASGVAVSKVLHLEGEVNKIKSALLSTNKAVVSLSNGVSVLTFKVLDLKNYIDKQLLPIVNKQSCSIPNIETVIEFQQKNNRLLEITREFSVNAGVTTPVSTYMLTNSELLSLINDMPITNDQKKLMSNNVQIVRQQSYSIMSIIKEEVLAYVVQLPLYGVIDTPCWKLHTSPLCTTNTKEGSNICLTRTDRGWYCDNAGSVSFFPQAETCKVQSNRVFCDTMNSRTLPSEVNLCNVDIFNPKYDCKIMTSKTDVSSSVITSLGAIVSCYGKTKCTASNKNRGIIKTFSNGCDYVSNKGVDTVSVGNTLYYVNKQEGQSLYVKCEPIINFYDPLVFPSSEFDASISQVNEKINQSLAFIRKSDELLHNVNAGKSTTNIMITTIIIVIIVILLSLIAVGLLLY
B4: YK-RSV-043 (protein)
chain: B3 chain with C9Q, L33T, T75C, S86C, V143L, C407G, S422D
B5: YK-RSV-055 (protein)
chain: B3 chain with C9Q, L33T, A83C, V143L, I228C, C407G, S422D
B6: YK-RSV-010 (protein)
chain: B3 chain with C9Q, S30C, L124C, C407G

Each molecule was assayed on RSV pre-F antibody (3C12) (assay: ELISA binding of RSV F antigen mutants, epitope Φ). Conditions: ELISA; antibodies 3C12, 7H11, 7E11.
Experimental: (§1) To investigate the binding of the RSV F antigen mutants to antibodies recognizing different epitopes, the binding amount was determined by an ELISA method in this example.
(§2) • 293T cells (purchased from ATCC cell bank); • Primary antibody: RSV pre-F antibody (3C12), epitope ([…] (Novoprotein, Cat. No.: DA101); • RSV pre-F antibody (7H11), epitope Quaternary (Novoprotein, Cat. No.: DA109); • RSV F antibody (11A9), epitope II (Novoprotein, Cat. No.: DA091); • RSV F antibody (4B9), epitope III (Novoprotein, Cat. No.: DA110); • RSV pre-F antibody (7E11), epitope V (Cat. No.: DA119); • Standard: RSV-pre-F trimer protein (Novoprotein, Cat. No.: DRA230); • Secondary antibody: peroxidase AffiniPure goat anti-human IgG (H+L) (Yeasen, Cat. No.: N/A); • Experimental group: mRNA vaccines after screening in Example 5;
(§3) Cell culture and transfection, and protein sample preparation: the experimental procedures were the same as in Example 3.
(§4) Detection of antigen expression by ELISA: the experimental procedures were the same as in Example 5.
(§5) In the present application, the binding of different mutant antigens to antibodies recognizing different epitopes was detected by ELISA, and the strength of the binding of the antigens to the antibodies was measured by the binding amount. (1) The RSV pre-F antibody (3C12) recognizing the epitope Φ binds only to the F protein in the pre-fusion conformation; (2) the RSV pre-F antibody (7H11) recognizes the epitope Quaternary (spanning both epitopes IV and V) and specifically binds to the F protein in the pre-fusion conformation; (3) the RSV F antibody (11A9) recognizing the epitope II can recognize both the pre-fusion and post-fusion conformations of the F protein; (4) the RSV F antibody […] recognizing the epitope III preferentially recognizes the pre-fusion conformation and has relatively weak binding activity for the post-fusion conformation; (5) the RSV pre-F antibody (7E11) recognizing the epitope V binds only to the F protein in the pre-fusion conformation.

| Molecule | binding of epitope Φ, epitope Quaternary and epitope V to the corresponding antibodies (in words) |
| --- | --- |
| B1 | able to well bind |
| B2 | able to well bind |

Same assay, conditions: epitope Φ

| Molecule | ELISA binding amount, Epitope Φ, RSV pre-F antibody (3C12) [ng/mL] |
| --- | --- |
| B1 | 3306 |
| B2 | 3068 |
| B3 | 521 |
| B4 | 9445 |
| B5 | 8589 |
| B6 | 838 |

Same assay, conditions: epitope Φ, antibody 3C12; relative to PC-RSV-064

| Molecule | Binding amount to antibody/binding amount of PC-RSV-064 to antibody, Epitope Φ |
| --- | --- |
| B1 | 1.19 |
| B2 | 1.11 |
| B3 | 0.19 |
| B4 | 3.41 |
| B5 | 3.10 |
| B6 | 0.30 |

What follows are molecules tested on RSV F antibody (11A9) (assay: ELISA binding of RSV F antigen mutants, epitope II). Conditions: not given.
Experimental: as §1, §2, §3, §4, §5

| Molecule | ELISA binding amount, Epitope II, RSV F antibody (11A9) [ng/mL] |
| --- | --- |
| B1 | 2255 |
| B2 | 2474 |
| B3 | 203 |
| B4 | 4610 |
| B5 | 3856 |
| B6 | 336 |

Same assay, conditions: antibody 11A9, relative to PC-RSV-064

| Molecule | Binding amount to antibody/binding amount of PC-RSV-064 to antibody, Epitope II |
| --- | --- |
| B1 | 1.07 |
| B2 | 1.18 |
| B3 | 0.10 |
| B4 | 2.20 |
| B5 | 1.84 |
| B6 | 0.16 |

The molecules below were run on RSV pre-F antibody (3C12) (assay: not given). Conditions: all stress tests; binding to 3C12, ELISA.
Assay type: physicochemical
Outline: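 RSV F mRNA-vaccine mutants stress-treated: 4° C. for one week, 50° C. for 60 min, low or high osmotic pressure at room temperature for 60 min, acid or base at room temperature for 60 min. Binding to 3C12 (epitope Φ) then measured by ELISA against pre-F trimer standard, HRP anti-human IgG, OD 450/630 nm.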

| Molecule | stability under the stress tests (in words) |
| --- | --- |
| B1 | superior stability |
| B2 | superior stability |
| B3 | superior stability |
| B4 | superior stability |
| B5 | superior stability |
| B6 | superior stability |

Same assay, conditions: high osmotic pressure 3000 mM, room temperature, 60 min; ELISA binding to 3C12

| Molecule | Stress resistance parameter, Osmotic pressure (mM) 3000 |
| --- | --- |
| B1 | 0.61 ± 0.17 |
| B2 | 0.66 ± 0.15 |
| B3 | 0.69 ± 0.15 |
| B4 | 0.72 ± 0.09 |
| B5 | 0.71 ± 0.23 |
| B6 | 0.84 ± 0.11 |

Same assay, conditions: incubation at 50° C. for 60 min; ELISA binding to 3C12

| Molecule | Stress resistance parameter, Temperature (° C.) 50 |
| --- | --- |
| B1 | 0.70 ± 0.07 |
| B2 | 0.69 ± 0.15 |
| B3 | 0.84 ± 0.04 |
| B4 | 0.66 ± 0.06 |
| B5 | 0.78 ± 0.19 |
| B6 | 1.04 ± 0.09 |

Same assay, conditions: low osmotic pressure 10 mM, room temperature, 60 min; ELISA binding to 3C12

| Molecule | Stress resistance parameter, Osmotic pressure (mM) 10 |
| --- | --- |
| B1 | 0.75 ± 0.00 |
| B2 | 0.87 ± 0.19 |
| B3 | 0.78 ± 0.15 |
| B4 | 0.84 ± 0.18 |
| B5 | 0.72 ± 0.20 |
| B6 | 0.97 ± 0.07 |

Same assay, conditions: pH 3.5, room temperature, 60 min; ELISA binding to 3C12

| Molecule | Stress resistance parameter, pH 3.5 |
| --- | --- |
| B1 | 0.61 ± 0.07 |
| B2 | 1.23 ± 0.27 |
| B3 | 0.60 ± 0.14 |
| B4 | 0.90 ± 0.13 |
| B5 | 0.69 ± 0.08 |
| B6 | 0.82 ± 0.05 |

Same assay, conditions: pH 10, room temperature, 60 min; ELISA binding to 3C12

| Molecule | Stress resistance parameter, pH 10 |
| --- | --- |
| B1 | 1.13 ± 0.19 |
| B2 | 1.16 ± 0.37 |
| B3 | 0.91 ± 0.04 |
| B4 | 0.75 ± 0.28 |
| B5 | 0.79 ± 0.26 |
| B6 | 0.93 ± 0.05 |

Same assay, conditions: storage at 4° C. for one week; ELISA binding to 3C12

| Molecule | Stress resistance parameter, Temperature (° C.) 4 |
| --- | --- |
| B1 | 0.46 ± 0.08 |
| B2 | 0.46 ± 0.07 |
| B3 | 0.71 ± 0.11 |
| B4 | 0.70 ± 0.13 |
| B5 | 0.48 ± 0.11 |
| B6 | 0.86 ± 0.08 |

Each molecule was assayed on RSV pre-F antibody (7E11) (assay: ELISA binding of RSV F antigen mutants, epitope V). Conditions: not given.
Experimental: as §1, §2, §3, §4, §5

| Molecule | ELISA binding amount, Epitope V, RSV F antibody (7E11) [ng/mL] |
| --- | --- |
| B1 | 217 |
| B2 | 923 |
| B3 | 43 |
| B4 | 223 |
| B5 | 91 |
| B6 | 139 |

Same assay, conditions: antibody 7E11, relative to PC-RSV-064

| Molecule | Binding amount to antibody/binding amount of PC-RSV-064 to antibody, Epitope V |
| --- | --- |
| B1 | 0.68 |
| B2 | 2.88 |
| B3 | 0.13 |
| B4 | 0.69 |
| B5 | 0.28 |
| B6 | 0.43 |
